Results as given in US20200087367A1 (ACCELERON PHARMA, published 2020).

T1: hENG(61-346)-hFc (human, UniProt P17813 61-346)
T1 construct: HEK 293, purified; not shown: linker and human IgG1 Fc domain
T1 sequence: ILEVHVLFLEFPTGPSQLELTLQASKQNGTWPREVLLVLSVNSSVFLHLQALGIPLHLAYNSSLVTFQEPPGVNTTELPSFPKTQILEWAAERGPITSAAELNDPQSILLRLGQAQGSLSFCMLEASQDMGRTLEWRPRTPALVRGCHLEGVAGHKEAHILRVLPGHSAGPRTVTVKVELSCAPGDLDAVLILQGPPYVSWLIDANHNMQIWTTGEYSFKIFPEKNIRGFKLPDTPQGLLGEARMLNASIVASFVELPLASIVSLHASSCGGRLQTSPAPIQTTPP

T2: hENG(166-346)-hFc (human, UniProt P17813 166-346)
T2 construct: HEK 293, purified; not shown: linker and human IgG1 Fc domain
T2 sequence: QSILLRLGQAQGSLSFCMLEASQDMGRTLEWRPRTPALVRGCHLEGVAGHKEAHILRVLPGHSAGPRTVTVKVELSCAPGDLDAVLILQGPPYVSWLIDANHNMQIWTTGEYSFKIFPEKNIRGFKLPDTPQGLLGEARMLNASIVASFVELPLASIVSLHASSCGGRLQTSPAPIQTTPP

T3: hENG(129-346)-hFc (human, UniProt P17813 129-346)
T3 construct: HEK 293, purified; not shown: linker and human IgG1 Fc domain
T3 sequence: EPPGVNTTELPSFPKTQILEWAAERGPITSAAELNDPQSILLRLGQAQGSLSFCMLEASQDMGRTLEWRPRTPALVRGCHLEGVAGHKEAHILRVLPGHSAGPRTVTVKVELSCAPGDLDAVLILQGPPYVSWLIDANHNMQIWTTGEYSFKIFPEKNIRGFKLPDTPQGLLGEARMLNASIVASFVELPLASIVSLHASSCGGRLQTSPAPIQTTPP

T4: hENG(26-332)-hFc (human, UniProt P17813 26-332)
T4 construct: HEK 293, purified; not shown: linker and human IgG1 Fc domain
T4 sequence: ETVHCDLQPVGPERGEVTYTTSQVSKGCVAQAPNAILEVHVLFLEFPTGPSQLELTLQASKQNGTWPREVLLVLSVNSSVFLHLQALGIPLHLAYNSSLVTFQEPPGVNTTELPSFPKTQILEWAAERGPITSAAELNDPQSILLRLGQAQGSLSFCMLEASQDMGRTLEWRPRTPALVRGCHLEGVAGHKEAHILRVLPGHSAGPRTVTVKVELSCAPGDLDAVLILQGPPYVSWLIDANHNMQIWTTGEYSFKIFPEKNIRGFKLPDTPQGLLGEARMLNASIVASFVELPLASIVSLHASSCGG

T5: hENG(133-346)-hFc (human, UniProt P17813 133-346)
T5 construct: HEK 293, purified; not shown: linker and human IgG1 Fc domain
T5 sequence: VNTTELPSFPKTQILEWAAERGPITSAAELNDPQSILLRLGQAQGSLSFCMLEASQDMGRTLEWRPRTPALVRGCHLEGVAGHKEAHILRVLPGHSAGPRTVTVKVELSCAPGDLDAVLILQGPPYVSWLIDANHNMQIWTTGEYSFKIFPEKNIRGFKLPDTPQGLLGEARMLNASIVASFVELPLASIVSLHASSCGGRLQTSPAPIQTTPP

T6: hENG(26-257)-hFc (human, UniProt P17813 26-257)
T6 construct: HEK 293, purified; not shown: linker and human IgG1 Fc domain
T6 sequence: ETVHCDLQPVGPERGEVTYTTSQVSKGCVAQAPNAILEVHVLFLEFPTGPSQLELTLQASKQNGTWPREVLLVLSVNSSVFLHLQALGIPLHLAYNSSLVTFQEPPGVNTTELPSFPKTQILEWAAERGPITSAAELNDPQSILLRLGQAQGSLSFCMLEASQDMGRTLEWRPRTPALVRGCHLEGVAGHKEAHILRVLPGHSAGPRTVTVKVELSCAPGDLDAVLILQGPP

T7: hENG(26-437)-hFc (human, UniProt P17813 26-437)
T7 construct: HEK 293, purified; not shown: linker and human IgG1 Fc domain
T7 sequence: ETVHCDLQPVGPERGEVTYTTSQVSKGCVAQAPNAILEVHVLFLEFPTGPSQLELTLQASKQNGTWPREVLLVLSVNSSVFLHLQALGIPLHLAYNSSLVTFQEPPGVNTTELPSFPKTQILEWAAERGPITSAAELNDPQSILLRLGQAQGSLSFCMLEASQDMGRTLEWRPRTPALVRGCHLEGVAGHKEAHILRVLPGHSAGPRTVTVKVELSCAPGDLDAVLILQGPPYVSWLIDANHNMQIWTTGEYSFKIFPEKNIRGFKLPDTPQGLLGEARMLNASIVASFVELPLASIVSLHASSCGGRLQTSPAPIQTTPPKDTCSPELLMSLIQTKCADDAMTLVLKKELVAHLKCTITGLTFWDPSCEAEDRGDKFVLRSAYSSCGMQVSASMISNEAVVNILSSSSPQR

T8: hENG(360-581)-hFc (human, UniProt P17813 360-581)
T8 construct: HEK 293, purified; not shown: linker and human IgG1 Fc domain
T8 sequence: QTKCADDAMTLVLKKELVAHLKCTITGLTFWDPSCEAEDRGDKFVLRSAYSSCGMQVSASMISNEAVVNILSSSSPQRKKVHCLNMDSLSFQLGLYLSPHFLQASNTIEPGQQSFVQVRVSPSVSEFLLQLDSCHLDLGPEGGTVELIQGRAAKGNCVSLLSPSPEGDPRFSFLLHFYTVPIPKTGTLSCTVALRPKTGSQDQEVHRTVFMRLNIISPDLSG


What was measured:
[1] = molecular target: T1, hENG(61-346)-hFc; assay: SPR, captured hENG-hFc, soluble BMP10; '-' = Binding undetectable
Description: (§1) SPR methodology was used to screen these hENG-hFc protein variants for high-affinity binding to human BMP9 and BMP10. In these experiments, captured hENG-hFc proteins were exposed to soluble BMP9 or BMP10 at 100 nM each.

[2] = molecular target: T2, hENG(166-346)-hFc; assay: as above
Description: as §1

[3] = molecular target: T3, hENG(129-346)-hFc; assay: as above
Description: as §1

[4] = molecular target: T4, hENG(26-332)-hFc; assay: as above
Description: as §1

[5] = molecular target: T5, hENG(133-346)-hFc; assay: as above
Description: as §1

[6] = molecular target: T6, hENG(26-257)-hFc; assay: as above
Description: as §1

[7] = molecular target: T7, hENG(26-437)-hFc; assay: SPR kinetics; HEK293-cell-derived protein
[8] = molecular target: T1, hENG(61-346)-hFc; assay: SPR, captured hENG-hFc, soluble BMP9; '-' = Binding undetectable
Description: as §1

[9] = molecular target: T8, hENG(360-581)-hFc; assay: as above
Description: as §1

| binding result [1] | binding result [2] | binding result [3] | binding result [4] | binding result [5] | binding result [6] | Kd [7] | koff [7] | binding result [8] | binding result [9] | Binder |
| --- | --- | --- | --- | --- | --- | --- | --- | --- | --- | --- |
| no binding (tested: 100 nM) | no binding (tested: 100 nM) | no binding (tested: 100 nM) | no binding (tested: 100 nM) | no binding (tested: 100 nM) | no binding (tested: 100 nM) | – | – | – | – | BMP10 (ligand, also called hBMP-10; hBMP10) NAKGNYCKRTPLYIDFKEIGWDSWIIAPPGYEAYECRGVCNYPLAEHLTPTKHAIIQALVHLKNSQKASKACCVPTKLEPISILYLDKGVVTYKFKYEGMAVSECGCR |
| – | – | – | – | – | – | 0.019 nM | 0.0014 s⁻¹ | no binding (tested: 100 nM) | no binding (tested: 100 nM) | BMP9 (ligand, human, UniProt Q9UK05 320-429, looked up, also called hBMP-9; hBMP9) SAGAGSHCQKTSLRVNFEDIGWDSWIIAPKEYEAYECKGGCFFPLADDVTPTKHAIVQTLVHLKFPTKVGKACCVPTKLSPISVLYKDDMGVPTLKYHYEGMSVAECGCR |
